Measurements from the supplement of paper PMC6757056.
± gives the standard deviation of the averaged measurements.

B1: library; a variant is named by its letters at N, in order (parent)
chain: GCUGUCACCGGUGUAUUACCCUAGUGGUCGACCGGUCUGAUGAGUCUNNNNNNAGACGAAACAGC

Tests used:
hypoxanthine [1] = variants of: B1; assay: normalized RNA/DNA level with ligand (relative to sTRSVctl = 100) (log10 (% of sTRSVctl)); ligand: hypoxanthine (xanthine aptamer); higher = less ribozyme self-cleavage, higher mRNA level; settings: ligand concentration (+) RNA-Seq: 5 mM, HEK293T, reporter: mCherry (pCS4076), ligand present: yes
Method in brief: (§1)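 Library plasmids carrying ribozyme switches linked to mCherry, or to eGFP in some ligand experiments, were transfected into HEK293T at 4 µg per 6-well well, with any ligand added 1 h earlier. Seventy-two hours on, total RNA was extracted with EDTA and reverse-transcribed, amplified, barcoded and sequenced. RNA level was RNA over DNA reads normalized to a spiked-in non-cleaving sequence or to the top sequences, then scaled and log-transformed. The top set was 25 sequences, the transform was ×100 and log10, and sequences needed ≥100 DNA reads.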

hypoxanthine [2] = variants of: B1; assay: normalized RNA/DNA level without ligand (relative to sTRSVctl = 100) (log10 (% of sTRSVctl)); ligand: hypoxanthine (xanthine aptamer); higher = less ribozyme self-cleavage, higher mRNA level; settings: HEK293T, reporter: mCherry (pCS4076), ligand present: no
Method in brief: as §1

Variant | normalized RNA/DNA level with ligand (log10) (hypoxanthine [1]) | normalized RNA/DNA level without ligand (log10) (hypoxanthine [2])
UCGAAC | 1.929 ± 0.011 | 1.734 ± 0.012
UCGAAU | 1.87 ± 0.043 | 1.476 ± 0.0078
UCGCGG | 1.93 ± 0.1 | 1.78 ± 0.037
UCGCGA | 1.89 ± 0.03 | 1.69 ± 0.071
UCGCGC | 2.01 ± 0.035 | 1.8 ± 0.024
GCCCUA | 1.97 ± 0.052 | 1.8733 ± 0.00068
GCCCUC | 1.97 ± 0.035 | 1.88 ± 0.058
CCGAUG | 1.82 ± 0.064 | 1.42 ± 0.049
CCGAUC | 1.99 ± 0.037 | 1.87 ± 0.056
CCGAUA | 1.92 ± 0.049 | 1.72 ± 0.059
GCGCCG | 1.91 ± 0.03 | 1.44 ± 0.017
GCGCCU | 2 ± 0.055 | 1.78 ± 0.052
GCGCCA | 1.97 ± 0.025 | 1.711 ± 0.01
UCGAUU | 1.912 ± 0.013 | 1.55 ± 0.12
UCGAUA | 1.91 ± 0.026 | 1.57 ± 0.032
UCGAUG | 1.922 ± 0.011 | 1.62 ± 0.033
UCCGGU | 1.98 ± 0.037 | 1.83 ± 0.054
UCCGGC | 2.019 ± 0.0041 | 1.85 ± 0.056
GCCUUU | 1.94 ± 0.041 | 1.92 ± 0.039
GCCCGU | 1.962 ± 0.019 | 1.83 ± 0.044
GCCCGA | 2.012 ± 0.015 | 1.719 ± 0.0081
ACCCCG | 1.86 ± 0.032 | 1.45 ± 0.063
ACCCCU | 1.967 ± 0.0051 | 1.892 ± 0.0077
ACCCCA | 1.96 ± 0.031 | 1.86 ± 0.062
ACCCCC | 1.99 ± 0.16 | 1.879 ± 0.013
GCCAUU | 1.96 ± 0.013 | 1.918 ± 0.01
GCCACG | 1.905 ± 0.0023 | 1.656 ± 0.0069
GCCACU | 1.99 ± 0.065 | 1.965 ± 0.0028
